This note sets out measurements from paper PMC2504287 (Nucleic Acids Research, 2008).

For orientation: Kd means the equilibrium constant for the complex coming apart. A higher Kd goes with weaker binding.

Data set [1] concerns the molecule itself.
The data set “native gel or EMSA” concerns the molecule itself. The data set can be described thus: native gel or EMSA. (In general: In EMSA bound probe runs differently from free probe, usually more slowly.)
Data set [2] has as its target T1, C.Esp1396I controller protein (UniProt Q8GGH0 1-79).
T1 sequence: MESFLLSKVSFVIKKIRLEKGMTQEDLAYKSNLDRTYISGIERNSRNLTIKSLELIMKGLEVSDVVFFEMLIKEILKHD
The data set can be described thus: EMSA.

B1: C.Esp1396I controller protein (wild type) (natural protein)
chain: GSHMESFLLSKVSFVIKKIRLEKGMTQEDLAYKSNLDRTYISGIERNSRNLTIKSLELIMKGLEVSDVVFFEMLIKEILKHD
B1 displayed a Kd in data set [1] of approximately 600 nM.

B2: C.Esp1396I E25A mutant (natural protein)
chain: GSHMESFLLSKVSFVIKKIRLEKGMTQADLAYKSNLDRTYISGIERNSRNLTIKSLELIMKGLEVSDVVFFEMLIKEILKHD
B2: the binding result in “native gel or EMSA” is listed as “binds”.

B3: OL (OR mutated) (dsDNA)
DNA 1: ATGTGACTTATAGTCCGTCTAGCCTAGCCTAGCCT
DNA 2: AGGCTAGGCTAGGCTAGACGGACTATAAGTCACAT
As for B3, the binding result in data set [2] was “binds”.
